First the molecules themselves.
B1: POU domain, class 3, transcription factor 2, residues 262 to 338; numbered along this chain, P20265 (parent)
chain: EDTPTSDDLEQFAKQFKQRRIKLGFTQADVGLALGTLYGNVFSQTTICRFEALQLSFKNMCKLKPLLNKWLEEADSS

Results on 36 variants are retold here after the Human Domainome abundance scans (Beltran et al. 2025).

± gives the uncertainty stated by the source.

This data set covers variants of B1. The data set is described as follows: abundance fitness (aPCA) (normalised: wild type 0, dead -1); higher = more abundant; growth selection in yeast, the domain comes from the species named. The settings on record: Homo sapiens.
On to EDTPTSDDLEQFAKQFKQRRIKLGFTQADVGLALGTLYGNVFSQTTICRFEALQLWFKNMCKLKPLLNKWLEEADSS [S56W], for which the abundance fitness is -0.801 ± 0.081.
In the case of EDTPTSDDLEQFAKQFKQRRIKLGFTQADVGLALGTLYGNVFSQTTICRFEALQLIFKNMCKLKPLLNKWLEEADSS [S56I] it was -0.662 ± 0.14.
As to EDTPTSDDLEQFAKQFKQRRIKLGFTQADRGLALGTLYGNVFSQTTICRFEALQLSFKNMCKLKPLLNKWLEEADSS [V30R], the abundance fitness was -0.979 ± 0.11.
The result for EDTPTSDDLEQFAKQFKQRRIKLGFTQADDGLALGTLYGNVFSQTTICRFEALQLSFKNMCKLKPLLNKWLEEADSS [V30D] reads -0.794 ± 0.31.
Regarding EDTPTSDDLEQFAKQFKQRRIKLGFTQADVGLALGTLYGNVFSQTTICRFEALQLSFFNMCKLKPLLNKWLEEADSS [K58F], the abundance fitness is -0.163 ± 0.15.
The result for EDTPTSDDLEQFAKQFKQRRIKLGFTQADVELALGTLYGNVFSQTTICRFEALQLSFKNMCKLKPLLNKWLEEADSS [G31E] reads -0.224 ± 0.04; that for EDTDTSDDLEQFAKQFKQRRIKLGFTQADVGLALGTLYGNVFSQTTICRFEALQLSFKNMCKLKPLLNKWLEEADSS [P4D], 0.029 ± 0.057; that for EDTPTSDDLEQFAKQFKQRRIKLGFTQADVGLALGTLYGNVFSQTTICRFEALQLSFKNMCKLKPLLNCWLEEADSS [K69C], -0.449 ± 0.16.
In the case of EDTPTSDDLEQFAKQFKQRRIKLGFTQADVGLALGTLYGNVFSQTTICRFEALQLSFKNMCKLKPLLNWWLEEADSS [K69W] it was -0.288 ± 0.16; in that of EDTPTSDDLEQFAKQFKQRRIKLGFTQADVGLALGTLYGNVFSQTTICRFEALQLSFKNMCKLKPLLNNWLEEADSS [K69N], -0.298 ± 0.25.
In the case of EDTPTSDDLEQFAKQFKQRRIKLGFTQADVGLALGTLYGNVLSQTTICRFEALQLSFKNMCKLKPLLNKWLEEADSS [F42L] it was 0.053 ± 0.034; in that of EDTPTSDDLEQFAKQFKQRRIKLGFTQADVGLALGTLYGEVFSQTTICRFEALQLSFKNMCKLKPLLNKWLEEADSS [N40E], 0.108 ± 0.04; in that of EDTPTSDDLEQFMKQFKQRRIKLGFTQADVGLALGTLYGNVFSQTTICRFEALQLSFKNMCKLKPLLNKWLEEADSS [A13M], -0.259 ± 0.11.
Regarding EDTPTSDDLEQFAKQFKQRRIKLGFTQADVGLALGTLYGNVFSQTTICRFEALQLSEKNMCKLKPLLNKWLEEADSS [F57E], the abundance fitness was -0.071 ± 0.034.
In the case of EDTPTSDDLEQFAKQFKQRRIKLGFTQADVGLALGTLYGNVFSQTTICRFEALQLSFKNMCMLKPLLNKWLEEADSS [K62M] it was 0.02 ± 0.048; in that of EDTPTSDDLEQFAKQFKQRRIKLGFTQADVGLALGTLYGNVFSQTTICRFEALQLSFKNECKLKPLLNKWLEEADSS [M60E], -0.848 ± 0.079; in that of EDTPTSDDLEQFAKQFKQRRIKLGFTQADVGLALGTLYGNVFSQTTICRFEALQLSFKNMCKLKGLLNKWLEEADSS [P65G], -0.108 ± 0.05.
EDTPTSDDLEQFAKQFKQRRIKLGFTQADVGLALGTLYGNVFSQTTICRFEALYLSFKNMCKLKPLLNKWLEEADSS [Q54Y]: the abundance fitness is -0.726 ± 0.27.
In the case of EDTPTSDDLEQFAKQFKQRRIKLGFTQADVGLALGTLYGNVFSLTTICRFEALQLSFKNMCKLKPLLNKWLEEADSS [Q44L] it was -0.248 ± 0.039; in that of EDTPTSDDLEQFAKQFKQRRIKLGFTQADVGLALGTLYGNVFSSTTICRFEALQLSFKNMCKLKPLLNKWLEEADSS [Q44S], 0.008 ± 0.035.
The result for EDTPTSDDLEQFAKQFKQRRIKLGFNQADVGLALGTLYGNVFSQTTICRFEALQLSFKNMCKLKPLLNKWLEEADSS [T26N] reads -0.392 ± 0.088.
In the case of EDTPTSDDLEQFAKQFKQRRILLGFTQADVGLALGTLYGNVFSQTTICRFEALQLSFKNMCKLKPLLNKWLEEADSS [K22L] it was -0.04 ± 0.035; in that of EDTPTSDDREQFAKQFKQRRIKLGFTQADVGLALGTLYGNVFSQTTICRFEALQLSFKNMCKLKPLLNKWLEEADSS [L9R], -0.716 ± 0.047.
EDTPTSDDLEQFAKQFKQRRIKLGFTQAQVGLALGTLYGNVFSQTTICRFEALQLSFKNMCKLKPLLNKWLEEADSS [D29Q]: the abundance fitness is -0.04 ± 0.04.
For the variant EDTPTSDDLEQFAKQFKQRRIKLGFTQAKVGLALGTLYGNVFSQTTICRFEALQLSFKNMCKLKPLLNKWLEEADSS [D29K], the abundance fitness is -0.26 ± 0.046.
The result for EDTPTSDDLEQFAKQFKQRRIKLGFTQATVGLALGTLYGNVFSQTTICRFEALQLSFKNMCKLKPLLNKWLEEADSS [D29T] reads -0.428 ± 0.06; that for EDWPTSDDLEQFAKQFKQRRIKLGFTQADVGLALGTLYGNVFSQTTICRFEALQLSFKNMCKLKPLLNKWLEEADSS [T3W], -0.202 ± 0.042; that for EDNPTSDDLEQFAKQFKQRRIKLGFTQADVGLALGTLYGNVFSQTTICRFEALQLSFKNMCKLKPLLNKWLEEADSS [T3N], -0.203 ± 0.05.
The result for EDTPTSDDLEQFAKQFKQRRIKLGFTQADVGLALGTLYGNVFSQTTITRFEALQLSFKNMCKLKPLLNKWLEEADSS [C48T] reads -0.064 ± 0.037; that for EDTPTSDDLEQFAKQFKQRRIKLGFTQADVGLALGTLYGNVFSQTTICRFEALQLSFKNMCKLMPLLNKWLEEADSS [K64M], -0.06 ± 0.05.
In the case of EDTPTSDDLEQFAKQFKQRRIKLGFTQADVGLALGTLYGNVFSQTTICRFEALQLSFKNMCKLKPLLNKWLEEAKSS [D75K] it was -0.058 ± 0.047; in that of EDTPTSDDLEQFAKQFKQRRIKLGFTQADVGLALGTLYGNVFSQTTICRFEALQLSFKNMCKLKPLLNKWLEEAGSS [D75G], -0.032 ± 0.027; in that of EDTPTSDDLEQFAKQFKQRRIKLGFTQADVGLALGTLYGNVFSQTTICRFEALQLSFKNMCKQKPLLNKWLEEADSS [L63Q], -1.03 ± 0.18.
As for EDTPTSDDLEQFAKQFKQRRIKLGFTQADVGLALGTLYGNVFSQTTICRFEALQLSFKNMCKLKPLLNKWLEEKDSS [A74K], the abundance fitness is -0.037 ± 0.051.
In the case of EDTPTSDDLEQFAKQFKQRRIKLGFTQADVGLALGTCYGNVFSQTTICRFEALQLSFKNMCKLKPLLNKWLEEADSS [L37C] it was -0.031 ± 0.053.
As to EDTPTSDDLEQFAKQFKQRRIKLGFTQADVGLALGTLYGNVFSQTTICRFMALQLSFKNMCKLKPLLNKWLEEADSS [E51M], the abundance fitness was -1 ± 0.21.
